{"source": "patent US20080313749A1", "key": {"[1]": {"biological_target": "… (SEQ ID NO:108), scaffold-bound CCR5-derived peptide 719", "sequence (peptide, as listed by the source)": "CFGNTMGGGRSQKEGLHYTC", "assay": "peptide microarray ELISA, 2D7 at 0.1 µg/ml"}, "[2]": {"biological_target": "… (SEQ ID NO:103), scaffold-bound CCR5-derived peptide 449", "assay": "peptide microarray ELISA, 2D7 at 0.1 µg/ml"}, "[3]": {"biological_target": "… (SEQ ID NO:101), scaffold-bound CCR5-derived peptide 447", "assay": "peptide microarray ELISA, 2D7 at 0.1 µg/ml"}, "[4]": {"biological_target": "… (SEQ ID NO:105), scaffold-bound CCR5-derived peptide 450", "assay": "peptide microarray ELISA, 2D7 at 0.1 µg/ml"}, "[5]": {"biological_target": "… (SEQ ID NO:107), scaffold-bound CCR5-derived peptide 1159", "assay": "peptide microarray ELISA, 2D7 at 0.1 µg/ml"}, "[6]": {"biological_target": "… (SEQ ID NO:106), scaffold-bound CCR5-derived peptide 702", "assay": "peptide microarray ELISA, 2D7 at 0.1 µg/ml"}, "[7]": {"biological_target": "… (SEQ ID NO:109), scaffold-bound CCR5-derived peptide 1158", "assay": "peptide microarray ELISA, 2D7 at 0.1 µg/ml"}, "[8]": {"biological_target": "… (SEQ ID NO:102), scaffold-bound CCR5-derived peptide 443", "assay": "peptide microarray ELISA, 2D7 at 0.1 µg/ml"}, "[9]": {"biological_target": "… (SEQ ID NO:104), scaffold-bound CCR5-derived peptide 1160", "assay": "peptide microarray ELISA, 2D7 at 0.1 µg/ml"}, "[10]": {"biological_target": "… (SEQ ID NO:108), scaffold-bound CCR5-derived peptide 719", "assay": "peptide microarray ELISA, 2D7 at 1 µg/ml"}, "[11]": {"biological_target": "… (SEQ ID NO:103), scaffold-bound CCR5-derived peptide 449", "assay": "peptide microarray ELISA, 2D7 at 1 µg/ml"}, "[12]": {"biological_target": "… (SEQ ID NO:101), scaffold-bound CCR5-derived peptide 447", "assay": "peptide microarray ELISA, 2D7 at 1 µg/ml"}, "[13]": {"biological_target": "… (SEQ ID NO:105), scaffold-bound CCR5-derived peptide 450", "assay": "peptide microarray ELISA, 2D7 at 1 µg/ml"}, "[14]": {"biological_target": "… (SEQ ID NO:107), scaffold-bound CCR5-derived peptide 1159", "assay": "peptide microarray ELISA, 2D7 at 1 µg/ml"}, "[15]": {"biological_target": "… (SEQ ID NO:106), scaffold-bound CCR5-derived peptide 702", "assay": "peptide microarray ELISA, 2D7 at 1 µg/ml"}, "[16]": {"biological_target": "… (SEQ ID NO:109), scaffold-bound CCR5-derived peptide 1158", "assay": "peptide microarray ELISA, 2D7 at 1 µg/ml"}, "[17]": {"biological_target": "… (SEQ ID NO:102), scaffold-bound CCR5-derived peptide 443", "assay": "peptide microarray ELISA, 2D7 at 1 µg/ml"}, "[18]": {"biological_target": "… (SEQ ID NO:104), scaffold-bound CCR5-derived peptide 1160", "assay": "peptide microarray ELISA, 2D7 at 1 µg/ml"}, "[19]": {"biological_target": "… (SEQ ID NO:108), scaffold-bound CCR5-derived peptide 719", "assay": "peptide microarray ELISA, 2D7 at 10 µg/ml"}, "[20]": {"biological_target": "… (SEQ ID NO:103), scaffold-bound CCR5-derived peptide 449", "assay": "peptide microarray ELISA, 2D7 at 10 µg/ml"}, "[21]": {"biological_target": "… (SEQ ID NO:101), scaffold-bound CCR5-derived peptide 447", "assay": "peptide microarray ELISA, 2D7 at 10 µg/ml"}, "[22]": {"biological_target": "… (SEQ ID NO:105), scaffold-bound CCR5-derived peptide 450", "assay": "peptide microarray ELISA, 2D7 at 10 µg/ml"}, "[23]": {"biological_target": "… (SEQ ID NO:107), scaffold-bound CCR5-derived peptide 1159", "assay": "peptide microarray ELISA, 2D7 at 10 µg/ml"}, "[24]": {"biological_target": "… (SEQ ID NO:106), scaffold-bound CCR5-derived peptide 702", "assay": "peptide microarray ELISA, 2D7 at 10 µg/ml"}, "[25]": {"biological_target": "… (SEQ ID NO:109), scaffold-bound CCR5-derived peptide 1158", "assay": "peptide microarray ELISA, 2D7 at 10 µg/ml"}, "[26]": {"biological_target": "… (SEQ ID NO:102), scaffold-bound CCR5-derived peptide 443", "assay": "peptide microarray ELISA, 2D7 at 10 µg/ml"}, "[27]": {"biological_target": "… (SEQ ID NO:104), scaffold-bound CCR5-derived peptide 1160", "assay": "peptide microarray ELISA, 2D7 at 10 µg/ml"}}}
{"substance": "anti-CCR5 antibody 2D7", "values": [{"measurement": "microarray ELISA signal (absorbance 405 nm, CCD camera)", "setting": "[1]", "result": 113}, {"measurement": "microarray ELISA signal (absorbance 405 nm, CCD camera)", "setting": "[2]", "result": 99}, {"measurement": "microarray ELISA signal (absorbance 405 nm, CCD camera)", "setting": "[3]", "result": 261}, {"measurement": "microarray ELISA signal (absorbance 405 nm, CCD camera)", "setting": "[4]", "result": 107}, {"measurement": "microarray ELISA signal (absorbance 405 nm, CCD camera)", "setting": "[5]", "result": 213}, {"measurement": "microarray ELISA signal (absorbance 405 nm, CCD camera)", "setting": "[6]", "result": 68}, {"measurement": "microarray ELISA signal (absorbance 405 nm, CCD camera)", "setting": "[7]", "result": 132}, {"measurement": "microarray ELISA signal (absorbance 405 nm, CCD camera)", "setting": "[8]", "result": 148}, {"measurement": "microarray ELISA signal (absorbance 405 nm, CCD camera)", "setting": "[9]", "result": 315}, {"measurement": "microarray ELISA signal (absorbance 405 nm, CCD camera)", "setting": "[10]", "result": 678}, {"measurement": "microarray ELISA signal (absorbance 405 nm, CCD camera)", "setting": "[11]", "result": 2610}, {"measurement": "microarray ELISA signal (absorbance 405 nm, CCD camera)", "setting": "[12]", "result": 2710}, {"measurement": "microarray ELISA signal (absorbance 405 nm, CCD camera)", "setting": "[13]", "result": 2360}, {"measurement": "microarray ELISA signal (absorbance 405 nm, CCD camera)", "setting": "[14]", "result": 1150}, {"measurement": "microarray ELISA signal (absorbance 405 nm, CCD camera)", "setting": "[15]", "result": 1580}, {"measurement": "microarray ELISA signal (absorbance 405 nm, CCD camera)", "setting": "[16]", "result": 416}, {"measurement": "microarray ELISA signal (absorbance 405 nm, CCD camera)", "setting": "[17]", "result": 2640}, {"measurement": "microarray ELISA signal (absorbance 405 nm, CCD camera)", "setting": "[18]", "result": 2470}, {"measurement": "microarray ELISA signal (absorbance 405 nm, CCD camera)", "setting": "[19]", "result": 2820}, {"measurement": "microarray ELISA signal (absorbance 405 nm, CCD camera)", "setting": "[20]", "result": 2890}, {"measurement": "microarray ELISA signal (absorbance 405 nm, CCD camera)", "setting": "[21]", "result": 2940}, {"measurement": "microarray ELISA signal (absorbance 405 nm, CCD camera)", "setting": "[22]", "result": 2850}, {"measurement": "microarray ELISA signal (absorbance 405 nm, CCD camera)", "setting": "[23]", "result": 2640}, {"measurement": "microarray ELISA signal (absorbance 405 nm, CCD camera)", "setting": "[24]", "result": 2790}, {"measurement": "microarray ELISA signal (absorbance 405 nm, CCD camera)", "setting": "[25]", "result": 2380}, {"measurement": "microarray ELISA signal (absorbance 405 nm, CCD camera)", "setting": "[26]", "result": 3090}, {"measurement": "microarray ELISA signal (absorbance 405 nm, CCD camera)", "setting": "[27]", "result": 2760}]}
